# Earlier results in publication PMC11391413.
# Read-outs that look alike come from different tables or passages of the source.
# Assays:
# [1] = molecular target: SOS1 S4 PRM (Homo sapiens); experiment: NMR
# [2] = molecular target: SOS1 S8 PRM (Homo sapiens) (UniProt Q07889); experiment: NMR
# [3] = molecular target: SOS1 S10 PRM (Homo sapiens) (UniProt Q07889); experiment: NMR
# [4] = molecular target: SOS1 S7 PRM (Homo sapiens) (UniProt Q07889); experiment: NMR
# SOS1 S2 (Homo sapiens) [5] = molecular target: SOS1 S2 (Homo sapiens)
# SOS1 S4 (Homo sapiens) [6] = molecular target: SOS1 S4 (Homo sapiens)
# SOS1 S4 (Homo sapiens) [7] = molecular target: SOS1 S4 (Homo sapiens); remark: listed apart in the source
# SOS1 S2 (Homo sapiens) [8] = molecular target: SOS1 S2 (Homo sapiens); remark: listed apart in the source
# GRB2 NSH3, sequence (P62993 1-58): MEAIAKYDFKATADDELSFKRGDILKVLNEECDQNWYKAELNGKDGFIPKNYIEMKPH
# GRB2 CSH3, sequence (P62993 156-215): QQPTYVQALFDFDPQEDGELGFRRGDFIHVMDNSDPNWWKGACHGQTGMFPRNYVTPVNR
Kd [1] [µM],Kd [2] [µM],Kd [3] [µM],Kd [4] [µM],Kd (SOS1 S1 (Homo sapiens)) [µM],Kd (SOS1 S2 (Homo sapiens) [5]) [µM],Kd (SOS1 S4 (Homo sapiens) [6]) [µM],Kd (SOS1 S4 (Homo sapiens) [7]) [µM],Kd (SOS1 S2 (Homo sapiens) [8]) [µM],Substance
37,208,71.5,580,730,250,37,,,GRB2 NSH3 (from UniProt P62993)
142,400,131,,,,,142,440,GRB2 CSH3 (from UniProt P62993)
